Test results taken from the supplement of paper PMC10724198.
± gives the standard deviation of the averaged measurements.

Legend:
Saccharomyces cerevisiae [1] = assay: protein stability index of tFT-peptide fusion (C-terminal peptide) (PSI (0-1 scale)); higher = more stable (slower turnover); settings: genetic background: wild type; temperature: 30 C
Saccharomyces cerevisiae [2] = assay: as above
Method: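 MPS profiling in S. cerevisiae of the tFT-X12 degron library: putative degron peptides plus stable controls, 12 aa, fused to the C-terminus of a sfGFP-mCherry timer. Cells are FACS-sorted into 8 mCherry/sfGFP bins and deep-sequenced. PSI runs from 0 (unstable) to 1 (stable). Backgrounds are wild type, das1Δ and doa10Δ at 30 °C, and wild type, das1Δ, cdc34-1 and cdc53-1 at 37 °C; 2-3 technical replicates each.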

[3] = genetic background: cdc34-1, temperature: 37 C
[4] = genetic background: cdc53-1, temperature: 37 C
[5] = genetic background: das1 deletion, temperature: 30 C
[6] = genetic background: das1 deletion, temperature: 37 C
[7] = genetic background: doa10 deletion, temperature: 30 C
[8] = genetic background: wild type, temperature: 30 C
[9] = genetic background: wild type, temperature: 37 C
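Also: PSI is a weighted mean of sequencing reads over stability bins, variants kept only with over 10 reads, mCherry proximal and sfGFP distal, peptide attached via GGGS linker.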

| Sequence | protein stability index (Saccharomyces cerevisiae [1]) | protein stability index (Saccharomyces cerevisiae [2]; [3]) | protein stability index (Saccharomyces cerevisiae [2]; [4]) | protein stability index (Saccharomyces cerevisiae [2]; [5]) | protein stability index (Saccharomyces cerevisiae [2]; [6]) | protein stability index (Saccharomyces cerevisiae [2]; [7]) | protein stability index (Saccharomyces cerevisiae [2]; [8]) | protein stability index (Saccharomyces cerevisiae [2]; [9]) |
| --- | --- | --- | --- | --- | --- | --- | --- | --- |
| VFFTSLPPLLRA | 0.458 ± 0.0096 | 0.433 ± 0.015 | 0.4543 ± 0.0034 | 0.372 ± 0.021 | 0.51 ± 0.01 | 0.341 ± 0.006 | 0.37 ± 0.032 | 0.486 ± 0.013 |
| VFIVVEFRLSLY | 0.231 ± 0.073 | 0.122 ± 0.019 | 0.243 ± 0.074 | 0.174 ± 0.038 | 0.3023 ± 0.0029 | 0.1496 ± 0.0014 | 0.17 ± 0.0089 | 0.263 ± 0.0037 |
| VFKLGWVLCVLL | 0.208 ± 0.024 | 0.286 ± 0.027 | 0.386 ± 0.0098 | 0.286 ± 0.01 | 0.389 ± 0.011 | 0.152 ± 0.0011 | 0.165 ± 0.0049 | 0.3 ± 0.0072 |
| VFLACSMTGGDA | 0.331 ± 0.022 | 0.256 ± 0.029 | 0.326 ± 0.022 | 0.373 ± 0.067 | 0.27 ± 0.0086 | 0.413 ± 0.021 | 0.36 ± 0.049 | 0.264 ± 0.016 |
| VFLDCCLRVFVD | 0.312 ± 0.011 | 0.252 ± 0.016 | 0.379 ± 0.028 | 0.228 ± 0.032 | 0.424 ± 0.014 | 0.188 ± 0.014 | 0.222 ± 0.023 | 0.389 ± 0.012 |
| VFLLFFFGLFVF | 0.415 ± 0.041 | 0.348 ± 0.02 | 0.385 ± 0.0091 | 0.295 ± 0.037 | 0.418 ± 0.025 | 0.356 ± 0.043 | 0.314 ± 0.007 | 0.414 ± 0.035 |
| VFLPVMVFFTFS | 0.4 ± 0.013 | 0.337 ± 0.013 | 0.457 ± 0.066 | 0.277 ± 0.03 | 0.49592 ± 0.00031 | 0.255 ± 0.0082 | 0.282 ± 0.016 | 0.469 ± 0.016 |
| VFRLLLFFVFVF | 0.37 ± 0.0056 | 0.266 ± 0.017 | 0.183 ± 0.068 | 0.287 ± 0.046 | 0.3848 ± 0.0031 | 0.279 ± 0.0075 | 0.236 ± 0.034 | 0.354 ± 0.015 |
| VGAVGVCILFVW | 0.35 ± 0.038 | 0.203 ± 0.0086 | 0.356 ± 0.014 | 0.242 ± 0.044 | 0.424 ± 0.0061 | 0.195 ± 0.016 | 0.232 ± 0.042 | 0.43 ± 0.013 |
